Measurements reported in patent US7799901B2, “Modulators of the function of FAS receptors and other proteins” (Yeda Research and Development Co. Ltd., priority 1995, dated 2010).

Key:
[1] = tested on: human embryonic kidney 293-EBNA cells; assay: Cell death on overexpression of MACH isoforms in 293-EBNA cells; format: cell-based; settings: β-galactosidase-expressing cells with apoptopic morphology, 20 h after transfection
Description: To explore the involvement of MACH in cell-death induction, the effect of overexpression of various MACH isoforms on cell viability was examined. The test was performed by transfecting MACH expression vectors together with a β-galactosidase expression vector as a transfection marker into human embryonic kidney 293-EBNA cells and breast carcinoma MCF7 cells.
(§1) In brief, 293-EBNA cells, MCF7 human breast carcinoma cells and HeLa HtTA-1 cells were grown in Dulbecco's modified Eagle's minimal essential medium supplemented with 10% fetal calf serum, nonessential amino acids, 100 U/ml penicillin and 100 μg/ml streptomycin. Cell tissue culture dishes (5×10^5 293-EBNA cells, 3×10^5 s MCF7 cells or 3×10^5 HeLa cells in 6-cm dishes) were transiently transfected, using the calcium phosphate precipitation method, with the cDNAs of the indicated proteins together with the β-galactosidase expression vector. In the experiments presented in FIGS. 14A-D and 15, each dish was transfected with 3.5 μg of the indicated MACH construct and 1.5 μg of pSV-β-gal. In the experiments presented in FIGS. 16A-D and 17-19, each dish was transfected with 2.5 μg of the indicated MACH or MORT1 construct (or, as control, empty vector) and 1.5 μg of pSV-β-gal. The cells were rinsed 6 to 10 h after transfection. The 293-EBNA and MCF7 cells were incubated for a further 18 h without additional treatment. The HeLa cells were incubated for 26 h after transfection and-then for 5 h in the presence of either anti-Fas.APO1 antibody (CH11, 0.5 μg/ml) or TNF (100 ng/ml), together with cycloheximide (10 μg/ml). The extent of cell death at the end of the incubation periods was assessed by determination of β-galactosidase expression, as described by Kumar et al, 1994.
In particular, FIGS. 14A-D show the morphology of human embryonic kidney 293-EBNA cells transiently expressing the indicated MACH isoforms. The arrows (FIG. 14B) point to apoptopic cells. Photographs were taken 26 h after transfection. […] Data are from three independent experiments with the 293-EBNA cells and two independent experiments with the MCF7 cells.

[2] = tested on: Fas/APO1-induced death of HeLa cells; assay: Death of HeLa cells expressing Fas/APO1 induced by anti-Fas/APO1 antibody and cycloheximide; format: cell-based, human; settings: HeLa cells transiently expressing Fas/APO1, CH11 0.5 μg/ml, cycloheximide 10 μg/ml
Description: as §1
The HeLa cells were made responsive to Fas/APO1 by transient expression of this receptor. […] These protective effects indicate that MACHα is a necessary component of both the Fas/APO1- and the p55-R-induced signaling cascades for cell death.
(§2) In particular, FIGS. 16A-D show morphology of 293-EBNA cells in which cell death was induced by transient expression of a chimera comprised of the extracellular domain of the p55-R (amino acids 1-168) fused to the transmembrane and intracellular domains of Fas/APO1 (amino acids 153-319) (p55-Fas chimera) (FIGS. 16A and 16B), or by expression of the p55-R (FIGS. 16C and 16D), and of cells that were protected from these cytotoxic effects by their simultaneous transfection with MACHα1 (C360S) (FIGS. 16B and 16D). Photographs were taken 26 h after transfection. FIG. 17 illustrates the quantification of death induced in 293-EBNA cells by their transfection with p55-Fas chimera or with p55-R, together with an empty vector, a MORT1 deletion mutant lacking the MACH-binding region (MORT1 (92-208)), or MACHα molecules containing a nonfunctional CED3/ICE region. […] Data are from at least two independent experiments and are expressed as in FIGS. 14A-F and 15.

[3] = tested on: Fas/APO1 cytotoxicity (p55-Fas chimera) in 293-EBNA cells; format: cell-based, human; settings: co-transfection
Description: as §1, with “The HeLa cells were incubated for 26 h after transfection and-then for 5 h in the presence of either anti-Fas.APO1 antibody (CH11, 0.5 μg/ml) or TNF (100 ng/ml), together with cycloheximide (10 μg/ml).” left out, “1994. […]” for “1994.”
as §2, with “Photographs were taken 26 h after transfection.” left out

[4] = tested on: p55-R-induced cytotoxicity in 293-EBNA cells; assay: Death of 293-EBNA cells induced by over-expression of p55-R; format: cell-based, human; settings: co-transfection
Description: as §1, with “The HeLa cells were incubated for 26 h after transfection and-then for 5 h in the presence of either anti-Fas.APO1 antibody (CH11, 0.5 μg/ml) or TNF (100 ng/ml), together with cycloheximide (10 μg/ml).” left out, “1994. […]” for “1994.”
as §2, with “Photographs were taken 26 h after transfection.” left out

[5] = tested on: TNF-induced death of HeLa cells; assay: Death of HeLa cells induced by TNF and cycloheximide; format: cell-based, human; settings: TNF 100 ng/ml, cycloheximide 10 μg/ml
Description: as §1, with “1994. […]” for “1994.”

[6] = tested on: FAS-R mediated cell death in HeLa cells; assay: Anti-FAS-R antibody (CH-11) induced death of HeLa cells co-expressing FAS-R, neutral-red uptake; format: cell-based; settings: co-expression with human FAS-R in HeLa HtTA-1; CH-11 antibody plus 10 μg/ml cycloheximide
Description: In another set of experiments to analyze the region of the MORT-1 protein involved in the binding to the FAS-IC, the following proteins were expressed transiently in HeLa cells that contain a tetracycline-controlled transactivator (HtTA-1), using a tetracycline-controlled expression vector (pUHD10-3): Human FAS-R alone; Human FAS-R as well as the N-terminal part of MORT-1 (amino acids 1-117, the “MORT-1 head”); Human FAS-R as well as the C-terminal part of MORT-1, which contains its ‘death domain’ homology region (amino acids 130-245, the “MORT-1 DD”); FLAG-55.11 (amino acids 309-900 of protein 55.11 fused at the N-terminus to the FLAG octapeptide, the protein 55.11 being a p55-IC-specific binding protein. Twelve hours after transfection, the cells were trypsinized and re-seeded at a concentration of 30,000 cells/well. After 24 hrs further incubation, the cells were treated for 6 hrs with a monoclonal antibody against the extracellular domain of FAS-R (monoclonal antibody CH-11, Oncor, Gaithersburg, Md., USA) at various concentrations (0.001-10 μg/ml monoclonal antibody), in the presence of 10 μg/ml cycloheximide. Cell viability was then determined by the neutral-red uptake assay and the results were presented in terms of % viable cells as compared to cells that had been incubated with cycloheximide alone (in the absence of anti-FAS-R monoclonal antibody CH-11). […]

FAS-IC = molecular target: T1, FAS-IC (Homo sapiens, UniProt P25445); assay: Two-hybrid test (FIG. 1), binding of MORT-1 fragments to FAS-IC
T1 construct: the FAS-IC extends-from amino acid residues 175-319 of the intact FAS-R; expressed in transfected cells; host or cells: SFY526 yeast
T1 sequence (P25445 191-335): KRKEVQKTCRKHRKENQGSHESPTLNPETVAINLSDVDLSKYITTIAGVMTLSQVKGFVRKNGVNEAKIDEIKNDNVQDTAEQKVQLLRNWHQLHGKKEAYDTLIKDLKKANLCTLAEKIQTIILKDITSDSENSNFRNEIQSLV
Description: To isolate proteins interacting with the intracellular domain of the FAS-R, the yeast two-hybrid system was used (Fields and Song, 1989). […] In this system, the genes for the candidate interacting proteins are cloned into separate expression vectors. In one expression vector, the sequence of the one candidate protein is cloned in phase with the sequence of the GAL4 DNA-binding domain to generate a hybrid protein with the GAL4 DNA-binding-domain, and in the other vector, the sequence of the second candidate protein is cloned in phase with the sequence of the GAL4 activation domain to generate a hybrid protein with the GAL4-activation domain. The two hybrid vectors are then co-transformed into a yeast host strain having a lacZ or HIS3 reporter gene under the control of upstream GAL4 binding sites. Only those transformed host cells (cotransformants) in which the two hybrid proteins are expressed and are capable of interacting with each other, will be capable of expressing the reporter gene. In the case of the lacZ reporter gene, host cells expressing this gene will become blue in color when X-gal is added to the cultures. […]
In FIG. 1, there is depicted the interaction of the proteins encoded by the Gal4 DNA binding domain and activation-domain constructs (pGBT9 and pGAD-GH) within transfected SFY526 yeasts as assessed by β-galactosidase expression filter assay. […]

MORT-1 = molecular target: T2, MORT-1 (Homo sapiens, UniProt Q13158, G32V); assay: Two-hybrid test (FIG. 1), binding to full-length MORT-1; parameters: expressed in transfected cells; host or cells: SFY526 yeast
T2 sequence (Q13158 with tags, fused parts or gaps G32V): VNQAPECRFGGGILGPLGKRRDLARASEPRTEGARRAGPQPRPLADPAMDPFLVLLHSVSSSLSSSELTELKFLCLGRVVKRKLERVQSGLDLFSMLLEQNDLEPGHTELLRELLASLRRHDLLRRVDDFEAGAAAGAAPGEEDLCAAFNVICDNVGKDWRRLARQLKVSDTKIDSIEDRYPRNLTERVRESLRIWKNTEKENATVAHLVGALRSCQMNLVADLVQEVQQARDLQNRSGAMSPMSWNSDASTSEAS
Description: To isolate proteins interacting with the intracellular domain of the FAS-R, the yeast two-hybrid system was used (Fields and Song, 1989). […] In this system, the genes for the candidate interacting proteins are cloned into separate expression vectors. In one expression vector, the sequence of the one candidate protein is cloned in phase with the sequence of the GAL4 DNA-binding domain to generate a hybrid protein with the GAL4 DNA-binding-domain, and in the other vector, the sequence of the second candidate protein is cloned in phase with the sequence of the GAL4 activation domain to generate a hybrid protein with the GAL4-activation domain. The two hybrid vectors are then co-transformed into a yeast host strain having a lacZ or HIS3 reporter gene under the control of upstream GAL4 binding sites. Only those transformed host cells (cotransformants) in which the two hybrid proteins are expressed and are capable of interacting with each other, will be capable of expressing the reporter gene. In the case of the lacZ reporter gene, host cells expressing this gene will become blue in color when X-gal is added to the cultures.
(b) retransforming the plasmid DNA and original FAS-IC hybrid plasmid and control plasmids described in (a) into yeast host cells of strain SFY526 and determining the LACZ^+ activity (effectivity of β-gal formation, i.e., blue color formation).
In FIG. 1, there is depicted the interaction of the proteins encoded by the Gal4 DNA binding domain and activation-domain constructs (pGBT9 and pGAD-GH) within transfected SFY526 yeasts as assessed by β-galactosidase expression filter assay. The DNA-binding-domain constructs included four constructs of the human Fas-IC, four constructs of the mouse Fas-IC including two full-length constructs having […] or Ile to Ala replacement mutations at position 225 (I225N and I225A, respectively), and three MORT-1 constructs, all of which are shown schematically on the left hand side of FIG. 1. […]

B1: MACHα2: MACH isoform, cDNA SEQ ID NO: 17, amino acid SEQ ID NO: 18 (protein)
chain: MDFSRNLYDIGEQLDSEDLASLKFLSLDYIPQRKQEPIKDALMLFQRLQEKRMLEESNLSFLKELLFRINRLDLLITYLNTRKEEMERELQTPGRAQISAYRVMLYQISEEVSRSELRSFKFLLQEEISKCKLDDDMNLLDIFIEMEKRVILGEGKLDILKRVCAQINKSLLKIINDYEEFSKGEELCGVMTISDSPREQDSESQTLDKVYQMKSKPRGYCLIINNHNFAKAREKVPKLHSIRDRNGTHLDAGALTTTFEELHFEIKPHDDCTVEQIYEILKIYQLMDHSNMDCFICCILSHGDKGIIYGTDGQEAPIYELTSQFTGLKCPSLAGKPKVFFIQACQGDNYQKGIPVETDSEEQPYLEMDLSSPQTRYIPDEADFLLGMATVNNCVSYRNPAEGTWYIQSLCQSLRERCPRGDDILTILTEVNYEVSNKDDKKNMGKQMPQPTFTLRKKLVFPSD
[1]
  cell death of transfected 293-EBNA cells: massive cell death

B2: MORT1 (92-208) (protein, UniProt Q13158 92-208, looked up, fragment)
chain: PGEEDLCAAFNVICDNVGKDWRRLARQLKVSDTKIDSIEDRYPRNLTERVRESLRIWKNTEKENATVAHLVGALRSCQMNLVADLVQEVQQARDLQNRSGAMSPMSWNSDASTSEAS
[2]
  protection against death induced by anti-Fas/APO1 antibody and cycloheximide: protection was also observed
[2]; listed as MORT1DD (92-208)
  protection against death induced by anti-Fas/APO1 antibody and cycloheximide: prevention
[3]
  protection against Fas/APO1 cytotoxicity (p55-Fas chimera): protection was also observed
[4]
  protection against p55-R-induced cytotoxicity: protection was also observed
[5]
  protection against death induced by TNF and cycloheximide: protection was also observed

B3: fragment corresponding to residues 130-245: C-terminal part of MORT-1 containing its death domain homology region, amino acids 130-245 (protein)
chain: FEAGAAAGAAPGEEDLCAAFNVICDNVGKDWRRLARQLKVSDTKIDSIEDRYPRNLTERVRESLRIWKNTEKENATVAHLVGALRSCQMNLVADLVQEVQQARDLQNRSGAMSPMS
[6]
  effect on FAS-induced (FAS-R mediated) cell death: strongly interferes
FAS-IC
  binding to FAS-IC / FAS-R in two-hybrid test: binds
MORT-1
  binding to full-length MORT-1 in two-hybrid test: does not bind
